Article doi:10.1101/207324

Key:
[1] = molecular target: T1, human S100A5 (human); assay: ITC
T1 sequence (P33763 1-92, looked up): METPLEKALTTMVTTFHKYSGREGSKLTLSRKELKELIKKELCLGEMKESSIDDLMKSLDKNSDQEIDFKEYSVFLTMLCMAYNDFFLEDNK

[2] = molecular target: human S100A6 (human); assay: ITC

Kd [1]: > 100 µM | Kd [2]: 20 µM
Substance: peptide from Siah-interacting protein (SIP) (from UniProt Q9HB71 188-218)
